IC50 data for 25 substances are collected here from paper PMC2193136.

For one experiment, the target named is HLA-DR2 (DRA1*0101/DRB1*1501) molecules, detergent-solubilized, purified from S2 cells (human). Put plainly: peptide binding inhibition assay.
With “HLA-DQw6 peptide corresponding to residues 43–58”, the 50% inhibitory concentration (IC50) (usually the point on the concentration scale where inhibition reaches its midpoint) amounted to 70 nM.

In the case of human PLP peptide PLP 40–60, the IC50 was 200 nM. This IC50 is about 2.9-fold higher than that of the substance before.

human PLP peptide PLP 95–116 showed an IC50 of 1480 nM. This IC50 is about 7.4-fold higher than that of the substance before.

The next experiment has the same target. Kind of experiment: competition peptide-binding assay.
On to MBP 85–96 truncated peptide, for which the half-inhibitory concentration (IC50) worked out at 20 nM.

In turn, MBP 85–97 truncated peptide had a half-inhibitory concentration (IC50) of 15 nM. This IC50 and that of the substance before are within 1.5-fold of each other.

Take MBP 85–98 truncated peptide: the 50% inhibitory concentration (IC50) is 4 nM.

Turning to MBP 85–99 analogue 85 (E→A) (peptide), the IC50 worked out at 7 nM.

Take MBP 85–99 analogue 86 (N→A) (peptide): the concentration for half-maximal inhibition (IC50) came out at 7 nM.

In turn, MBP 85–99 analogue 87 (P→A) (peptide) came in with an IC50 of 10 nM.

In turn, MBP 85–99 analogue 88 (V→A) (peptide) registered an IC50 of 10 nM.

For the substance MBP 85–99 analogue 89 (V→A) (peptide), the concentration for half-maximal inhibition (IC50) was determined as 50 nM. Against the preceding substance, the IC50 is about 5-fold higher.

MBP 85–99 analogue 90 (H→A) (peptide) gave a concentration for half-maximal inhibition (IC50) of 10 nM.

Consider MBP 85–99 analogue 91 (F→A) (peptide), for which the 50% inhibitory concentration (IC50) worked out at 10 nM.

Substance MBP 85–99 analogue 92 (F→Y) (peptide) came in with an IC50 of 12 nM.

MBP 85–99 analogue 93 (K→A) (peptide) yielded a half-maximal inhibitory concentration (IC50) of 4 nM.

The substance MBP 85–99 analogue 94 (N→A) (peptide) showed a half-inhibitory concentration (IC50) of 4 nM.

MBP 85–99 analogue 95 (I→A) (peptide): the IC50 worked out at 4 nM.

MBP 85–99 analogue 96 (V→A) (peptide) returned an IC50 of 4 nM.

In turn, MBP 85–99 analogue 97 (T→A) (peptide) came in with an IC50 of 4 nM.

With MBP 85–99 analogue 98 (P→A) (peptide), the IC50 was 5 nM.

As to MBP 85–99 analogue 99 (R→A) (peptide), the IC50 is 5 nM. In other words, the single-digit nanomolar range.

As to MBP 85–99 peptide, the 50% inhibitory concentration (IC50) worked out at 5 nM.

The substance “MBP 86–99 truncated peptide (row label printed as (85–99))” yielded an IC50 of 3 nM.

In turn, MBP 87–99 truncated peptide showed a half-maximal inhibitory concentration (IC50) of 5 nM.

Substance MBP 88–99 truncated peptide registered a concentration for half-maximal inhibition (IC50) of 30 nM.
